From the supplement of paper PMC9170038

Tested on: MS2 coat protein
Test: apparent KD of MS2 coat protein; higher = weaker reporter binding
Conditions: Eterna round: R107
Outline: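 Designed RNA switches were made by on-chip transcription from Illumina sequencing clusters and then titrated with SNAP-549-labelled MS2 coat protein. Twofold steps ran from 0.7 or 1.5 nM to 3 µM, each lasting 0.8–1.5 h early and 10–20 min late, in 100 mM Tris-HCl pH 7.5, 80 mM KCl, 4 mM MgCl2, without or with constant ligand. Apparent KD is the per-design median of normalised cluster binding-curve fits.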

[1] = input ligand: theophylline 20 uM
[2] = input ligand: tryptophan 2.4 mM
[3] = input ligand: theophylline 2 mM

Sequence	apparent KD of MS2 coat protein (input ligand: arginine 13.2 mM)	apparent KD of MS2 coat protein [1]	apparent KD of MS2 coat protein [2]	apparent KD of MS2 coat protein (input ligand: none)	apparent KD of MS2 coat protein [3]
ACAUGAGGAUCACCCAUGUUCCUCGCCGAUACCAGUGAAGAAUUACGCCCUUGGCAGCGGAAUGAGUGUUUUGGAGAUGAGGUAC [6.aB]	84.4 nM	112 nM	81 nM	–	–
UCCAUCGGCGGAAGCCGAUGGUUUACAGAAGGAGCGUAGGAAACUACAGGUAGGUCGCUGGACAUGAGGAUCACCCAUGUGUUUU [SSAA #12]	24.4 nM	22.4 nM	20.8 nM	26.5 nM	30 nM
GCCGCCGGUGCUUCAUUCCCUGAGCGACGGCGAGGACCGGUACGGCCGCCACUCGGCUCGGUACAUGAGGAUCACCCAUGUCUUU [theeternabot_exclusion_MS2_Trp_A_11]	30.7 nM	58.4 nM	–	–	60.8 nM
AUCGUACCUGGUGAUACCAGCAAUUGCUCGUGACAUGAGGAUCACCCAUGUGGCCAGUGAUGCCCUUGGCAGCAUGGUCGGUGCA [Same State - Theophylline B (Freestyle 24)]	72.4 nM	167 nM	122 nM	–	–
GAUCAAAGAUCACAUGAGGAUCACCCAUGUCGAGGACCGGUACGGCCGCCACUCGCGGCGGUGAAAAUAGAUACAAAGUAUCUAU [Ex_TrypA - ViennaApproves]	40.1 nM	83.9 nM	–	–	86.1 nM
AACGUGAACGUGGUAUACCCGUGUGCCGAAGGAGCGCCCGUAAGGGCAGGUAGGUCGCGGUCGACAUGAGGAUCACCCAUGUUUG	39.5 nM	84.2 nM	81.6 nM	74.6 nM	106 nM
AUGCCGGGCCGAAGGAGCGCAAUAGAAUGACAUGAGGAUCACCCAUGUGUGUGAUGUGGGUUGCAGGUAGGUCGCGGCCCGGCAU [#12 Exclusion - Arginine B]	17.6 nM	80.2 nM	68.3 nM	42.1 nM	62.7 nM
GCAAAGUGAUCGGCCGCCACUGCAAUGCUUAAUGGAGGUCCACAUGAGGAUCACCCAUGUCUUCCCAGGACCGGGAUCUCGAGUU [theeternabot_sameState_MS2_Trp_B_3]	59 nM	65.5 nM	–	–	72.6 nM
CCGGGCCCGGGCGACCGGGCCCGGACUGAAGGAGCGGGAAUAAACCCAGGUAGGUCGCAGAGAUCCACAUGAGGAUCACCCAUGU [!0.V]	31.7 nM	49.6 nM	48.6 nM	30.9 nM	50.9 nM
ACAUGAGGAUCACCCAUGUGAAGCAGGGUACGAGGACCGGUACGGCCGCCACUCGAGGAUUAUACCGAGUGAAUGGCAACGAUGU [whbob_Ex_trypto A_2s18]	13.2 nM	21.8 nM	15.2 nM	14.1 nM	17.8 nM
GGAUGCGGCACGGCCGCCACUGCGGUGGUGUGACAUGAGGAUCACCCAUGUUGUCAUGCGGCCCUUAGGACCGGGUGGCGUGUCC [#1 Exclusion - Tryptophan B Attempt #19 (HarryS)]	37.2 nM	57.4 nM	–	–	56.3 nM
AGCACACAUCCUGAUACCAGAGACAUGAGGAUCACCCAUGUCCGAUCGUCCUGCCUCAGACUCCCUUGGCAGCAGGAUGUGUGCU [Exclusion Theophylline B GF7]	12.5 nM	18.6 nM	13.4 nM	–	–
UUGGUAGGACAGCUCAUAUAAGCAUGUGAUACCAGCUAGAAAACUAGCCCUUGGCAGCACUUUACAUGAGGAUCACCCAUGUCCC [EThA NP+V+V2 #2 +-Same Structure]	68.8 nM	258 nM	145 nM	–	–
UGUACUAUGUGAAGGAGCGAGAAUCCUACAUGAGGAUCACCCAUGUAAGAGCGAAAGCUCACUCAGGUAGGUCGCACAUAGUACU [#17 Same State - Arginine B]	31.7 nM	44.1 nM	48.8 nM	42.9 nM	43.7 nM
GCAUCCUAGUCGGCCGCCACUGCAUCACCGGUCCUAGGUGAUCAACAUGAGGAUCACCCAUGUAGCAGGACCGGGACUAGGAUGC [(Trp1)-(MT)''-(MT)'-(Ms2)-(Trp2)_Design2]	345 nM	320 nM	19.9 nM	491 nM	636 nM
ACAUGAGGAUCACCCAUGUAUUACCGGGAAGGAGCGCGUAAGGACGCAGGUAGGUCGCUCGGCGUCCGGCCGCAAGGCUGGACGA [#1 Same State - Arginine A Attempt #17 (HarryS)]	12.3 nM	18.1 nM	15.2 nM	16.3 nM	16.4 nM
AGACAUGAGGAUCACCCAUGUAGUAUGGAUACCAGAUCCAGAUUUAUCCCUUGGCAGCUGUGGUACAGCGAUGGAUCGCUCCUAG [Exclusion - Theophylline A (Freestyle 11)]	22.6 nM	34 nM	28 nM	–	–
ACAUGAGGAUCACCCAUGUGUGUAAAUCCUCGAGGACCGGUACGGCCGCCACUCGAACGAGUGUAAGUUGAAUGUAACAUUCAAC [SS Trp A v1]	47.3 nM	123 nM	–	–	104 nM
AUACGUAACAGAAGGAGCGCACCGACAUGAGGAUCACCCAUGUGGGAUGGGACUCUUUUGGUGCAGGUAGGUCGCUGUCACGCAU [Beatattian]	23.7 nM	99.4 nM	40.3 nM	41.4 nM	61.2 nM

Sequence	apparent KD of MS2 coat protein (input ligand: arginine 13.2 mM)	apparent KD of MS2 coat protein [1]	apparent KD of MS2 coat protein [2]	apparent KD of MS2 coat protein (input ligand: none)	apparent KD of MS2 coat protein [3]
ACACGGCAUGAUGGAUCACCUCGUGAAUCACGAGGACCGGUACGGCCGCCACUCGAAAACCGUGACCUGUACGAAAAGUGCAGGA	36 nM	254 nM	38.8 nM	53 nM	758 nM
UCGUGUAUAUCGGAUACCAGUGAAAACGAUACAUGAGGAUCACCCAUGUGAGUUGAUGUACACCCUUGGCAGCUGUAUAUAUCUA [fokullin]	16.1 nM	22.7 nM	18.6 nM	–	–
UGGUUUGUGAUGGAUACCAGCAGAGAAAACGUUUAUCCUAACAUGAGGAUCACCCAUGUAUGCCCUUGGCAGCUGUUGUGGGCUA [8.S]	27.5 nM	37.4 nM	28.8 nM	–	–
GCACCAGGUACGGAUACCAGCUGCCAGCGUUACAUGAGGAUCACCCAUGUGAUCUGAAGUAGCCCUUGGCAGCUGUACCUGGUGC [SSThB NP+V+V2 #4 +-Same Structure]	96.7 nM	207 nM	62 nM	–	–
GUAAUUUAUUGAAGGAGCGUCGAAAAUGGGUAAACAUGAGGAUCACCCAUGUAAAGGGAACGACAGGUAGGUCGCAAUAGGUUAC [AstromonsSSArgB#29]	103 nM	252 nM	197 nM	192 nM	285 nM
AUAACGAGUGGUGGAUAAUCCUCAUGUAAACGAGGACCGGUACGGCCGCCACUCGAUAACAUGAGGAUCACCCAUGUAAUAAUAA [|T'-M'-Trp-Ms2|_Design17]	25.9 nM	20.8 nM	–	–	21.3 nM
AUACCUAAUGUUACAUUUUCCUUUUCAGAUACCAGACUUUACGUUGUCCCUUGGCAGCUGUAUCACAUGAGGAUCACCCAUGUUG [JR_SSTheophyA_Sub009]	17.3 nM	20.7 nM	17 nM	–	–
CUGUUUGUUUGGGUCUGUCAAAAGAACGAUACCAGCCGCAUUAUGGGCCCUUGGCAGCGUAGGACAUGAGGAUCACCCAUGUACG [theeternabot_exclusion_MS2_Theo_A_16]	16 nM	22 nM	16.2 nM	–	–
AACAUGAGGAUUGAUACCAGUCCAUGAGGAUCACAUGAGGAUCACCCAUGUGGAACAUGAGGCCCUUGGCAGCAGUACAACAUGA [Same State Theophylline B]	13.8 nM	17.2 nM	17.3 nM	–	–
UAUCGUCAGACGGCCGCCACUAGAACAUGAGGAUCACCCAUGUAGGCGGCCGAUUCCUCAUUAACUAGGACCGGGUCUGACGAAU [(Trp1)-(Ms2)-(T)'-(M)'-(Trp2)_Design11]	11.5 nM	15.9 nM	–	–	9.76 nM
GCAACGCUGUCGGCCGCCACUUUUACAUUGGCCGUGCUGUCUCUACAUGAGGAUCACCCAUGUGGAAGGACCGGGACAGCACACU [Arzaleer]	21.2 nM	39.6 nM	–	–	44.7 nM
AAAUAAUCUAGUCCACAAUGUGACUCAGAUACCAGUGCAAAGCUACACCCUUGGCAGCUGGUUACAUGAGGAUCACCCAUGUCGU [theeternabot_exclusion_MS2_Theo_A_50]	34.3 nM	51.9 nM	46.9 nM	–	–
AAUAAUAGGUGAUCUUAAGUCGUACCGUAACGAGGACCGGUACGGCCGCCACUCGAACAUGAGGAUCACCCAUGUAUGUAUGAUA [whbob_SS_trypto A_f5]	44.7 nM	242 nM	80.7 nM	168 nM	300 nM
GUAUUUAUAUGAAGGAGCGUCGAAAAUGGGUAAACAUGAGGAUCACCCAUGUAAAGGGAACGACAGGUAGGUCGCAUAUGGAUAC [AstromonsSSArgB#25]	111 nM	251 nM	239 nM	160 nM	279 nM
AGCCACUCGAGUGAUCCUCACGAGUGGCUACGAGGACCGGUACGGCCGCCACUCGAAUUAACAUGAGGAUCACCCAUGUAAUCAC [Brourdmod05]	81.1 nM	135 nM	–	–	597 nM
GUCUUGGGAUCGGCCGCCACUACAUGAGGAUCACCCAUGUGGACAAAUAGGGUUUUUAAGCUCGGUAGGACCGGGAUUCGGACAU [Marasosoge]	12.9 nM	16.7 nM	–	–	16.3 nM
GGACUAACCUGAAGGAGCGACGCGCAGAAACUGCAAUUUCCUCCACACGAGGAUCACCCGUGUCAGGUAGGUCGCAGGUUAGUCG [ArgBX 29]	13.1 nM	18.3 nM	15.3 nM	14.1 nM	15.4 nM
GUAUUCAUGACGGCCGCCACUGCAAGCCUCCUCAUGGCAGAUUGACAUGAGGAUCACCCAUGUCUCAGGACCGGGUCUGGCAUCC [theeternabot_sameState_MS2_Trp_B_43]	65.8 nM	244 nM	–	–	346 nM
